Patent US20240052042A1 (Novartis, published 2024)

How the values were obtained:
Assay in all cases: FabCys affinity determination
hNPR1-ANP complex = molecular target: T1, hNPR1-ANP complex (human, UniProt P01160 124-151, limits assumed)
T1 construct: hNPR1 antigen in the presence of ANP; also called hNPR1 + 100 nM ANP
T1 sequence: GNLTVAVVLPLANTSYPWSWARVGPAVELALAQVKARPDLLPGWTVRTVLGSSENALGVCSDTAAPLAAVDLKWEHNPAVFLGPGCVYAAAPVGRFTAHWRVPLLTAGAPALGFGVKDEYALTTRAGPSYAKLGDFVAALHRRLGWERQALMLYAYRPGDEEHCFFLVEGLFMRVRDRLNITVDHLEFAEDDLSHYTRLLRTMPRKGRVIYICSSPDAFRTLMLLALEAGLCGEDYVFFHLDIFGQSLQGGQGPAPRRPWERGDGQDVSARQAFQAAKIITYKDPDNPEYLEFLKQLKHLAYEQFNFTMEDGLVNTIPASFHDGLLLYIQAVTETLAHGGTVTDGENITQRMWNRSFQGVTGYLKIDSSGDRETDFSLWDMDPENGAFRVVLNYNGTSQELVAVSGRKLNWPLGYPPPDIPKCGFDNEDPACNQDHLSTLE
T1 sequence (peptide): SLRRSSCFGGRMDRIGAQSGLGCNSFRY

rat NPR1 (rNPR1) = molecular target: T2, rat NPR1 (rNPR1) (rat, UniProt P18910 29-469, limits assumed)
T2 construct: Soluble antigen
T2 sequence: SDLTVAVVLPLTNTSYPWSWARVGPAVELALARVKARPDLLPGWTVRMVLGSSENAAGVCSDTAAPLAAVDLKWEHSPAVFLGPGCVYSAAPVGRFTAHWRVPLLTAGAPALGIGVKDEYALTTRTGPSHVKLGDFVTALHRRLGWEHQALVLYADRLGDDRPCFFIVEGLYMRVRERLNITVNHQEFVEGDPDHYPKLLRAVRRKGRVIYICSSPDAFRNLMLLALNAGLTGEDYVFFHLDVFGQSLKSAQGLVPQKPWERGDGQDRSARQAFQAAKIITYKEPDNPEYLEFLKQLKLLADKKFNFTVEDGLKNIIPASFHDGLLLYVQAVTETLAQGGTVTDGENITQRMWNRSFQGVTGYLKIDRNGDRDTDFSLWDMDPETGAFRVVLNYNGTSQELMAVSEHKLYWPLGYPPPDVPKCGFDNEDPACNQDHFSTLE

rNPR1-ANP complex = molecular target: T3, rNPR1-ANP complex (rat, UniProt P01160 124-151 (human entry), limits assumed)
T3 construct: rNPR1 antigen in the presence of ANP; also called rNPR1 + 100 nM ANP
T3 sequence: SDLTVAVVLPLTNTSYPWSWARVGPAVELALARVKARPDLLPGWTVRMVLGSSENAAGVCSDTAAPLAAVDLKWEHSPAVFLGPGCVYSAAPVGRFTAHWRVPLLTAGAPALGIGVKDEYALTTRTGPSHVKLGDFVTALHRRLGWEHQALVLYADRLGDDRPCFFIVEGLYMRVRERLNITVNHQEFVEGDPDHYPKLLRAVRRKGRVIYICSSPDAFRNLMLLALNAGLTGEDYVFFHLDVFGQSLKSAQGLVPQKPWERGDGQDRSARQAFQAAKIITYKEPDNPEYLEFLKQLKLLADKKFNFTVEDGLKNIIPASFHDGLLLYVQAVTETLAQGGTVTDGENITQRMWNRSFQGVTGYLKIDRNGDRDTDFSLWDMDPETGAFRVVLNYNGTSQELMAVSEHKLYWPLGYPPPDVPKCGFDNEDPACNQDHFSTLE
T3 sequence (peptide): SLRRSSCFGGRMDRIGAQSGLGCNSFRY

Measured: Kd

B1: YY03 (FabCys format) (Fab, V domains shown)
VH: EVQLLESGGGLVQPGGSLRLSCAASGFTFSSYAISWVRQAPGKGLEWVSAISGSGGSTYYAESVKGRFTISRDNSKNTLYLQMNSLRAEDTAVYYCARESGYVYYLKFDYWGQGTLVTVSS
VL: DIQMTQSPSSLSASVGDRVTITCRASQSISSYLNWYQQKPGKAPKLLIYAASSLQSGVPSRFSGSGSGTDFTLTISSLQPEDFATYYCQQHVRVPITFGQGTKVEIK
notes: Monovalent FabCys
100 pM: hNPR1-ANP complex | rat NPR1 (rNPR1) | rNPR1-ANP complex
